Results reported in the supplement of paper PMC12042874.
± gives the uncertainty stated by the source.

Experiment: amyloid nucleation score (Sup35N fusion, yeast selection) (log enrichment); library NNK1; higher = more nucleation; inactive = no reads after selection
Outline: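 On medium lacking adenine and uracil, psi-negative yeast expressing peptides of 20 random codons fused to Sup35N were grown 7 days at 30°C after a 24-hour induction with 100 μM copper sulfate. Illumina sequencing of input and output plasmid inserts gave the reads, and sequences under 100 input reads were excluded. The nucleation score is the DiMSum log enrichment of output over input reads, centred on the mode score of non-aggregating sequences.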

| Substance | amyloid nucleation score |
| --- | --- |
| WLKVGGEFSWSVQSVY | 0.071 ± 0.55 |
| NVHWRDVGGMLFRRNNIRRI | 5.222 ± 0.052 |
| TLVQCVSWISGSDKSHRMTI | -1.52 ± 2.7 |
| QVKDIGLPMHHACF | -1.36 ± 1.1 |
| LSFLSSVSDLIKLSSIFYGY | -0.264 ± 0.37 |
| MLSVSWFAVAMVYMGMNNTC | 2.04 ± 0.48 |
| TDPLSYTFVTSPVMVTRGSS | -0.942 ± 0.52 |
| LLAVAGPLLWLYRYMISFIS | 0.071 ± 0.97 |
| PVRQLERSNRLLKQGRRPLG | 0.512 ± 0.49 |
| YSCIYKWHECNNVNDNMK | 0.149 ± 0.46 |
| CVPDGKFRSKRIPGRNFPLL | 0.278 ± 0.42 |
| RSYGGLIKFNHVSDTL | -0.429 ± 0.93 |
| SNFSG | 0.446 ± 0.66 |
| HFQKYKELVVSKHN | 0.743 ± 1.1 |
| SHTTILTSWRSYKKMKASNA | 0.496 ± 0.43 |
| VRYEIAA | -1.06 ± 2.4 |
| IHQEIVNVNTIVCN | -0.147 ± 0.25 |
| CVFRCVLVKWSVNMVLLLWF | 0.536 ± 0.3 |
| GKFRYHGRAMRHSARALIYF | 0.451 ± 0.42 |
| RFYMCRLEGVPFES | 0.58 ± 0.79 |
| SHMDHGRQRWCSN | 0.83 ± 0.88 |
| AKWPARSPSLQLGNFWFDTT | 0.161 ± 0.59 |
| HTWMSLRGVAFTCQ | -0.13 ± 0.3 |
| SSFRLHR | inactive |
| WSSTRPCFLFQLRMAMLLCS | 0.154 ± 0.59 |
| LPGVFAPCSDYLMVMDVGHS | -0.409 ± 0.35 |

| Substance | amyloid nucleation score |
| --- | --- |
| LFSNTNK | inactive |
| ILFSNCSFLKSCYWFK | 7.25 ± 0.085 |
| IICSLW | 0.614 ± 0.34 |
| ICKFDLALKFRGRYTEAEWC | 1 ± 0.32 |
| TISLL | 0.13 ± 0.43 |
| MENISLINGLETMYPIDRLT | -2.15 ± 2.4 |
| RFLPVLVSIINKRQGGYDF | 0.064 ± 0.46 |
| HLWHSGPFVRMCCATFIFLA | 0.49 ± 0.75 |
| QSSSYERLKQTGKLSFYIDF | -0.069 ± 0.61 |
| PQQEGISLSDALPLPEEGRV | 0.535 ± 0.4 |
| PHVFRFSFPTLILIGSFNFC | 3.14 ± 0.12 |
| VEEGNMRCSNLMTLEHTTHK | -0.582 ± 0.42 |
| SMGLKPGEVCLNKDFDSH | 0.036 ± 1.2 |
| WLAHRNWLC | 0.103 ± 0.7 |
| TLHKFCLSGVHSFVGVTNST | 0.06 ± 0.46 |
| TTPIEAV | -0.178 ± 1.2 |
| TRSDQPTILTSLYLERNYSP | -0.321 ± 0.56 |
| CSFYHVFRCSVGFDVFFSTD | -0.259 ± 0.41 |
| MARVC | -1.56 ± 2.4 |
| HDICTLWILSAL | 0.602 ± 0.78 |
| AYINSSDSRSDMSRNWY | 0.47 ± 1.1 |
| VVHLSLCMRCALWRYRELVC | 1.12 ± 0.55 |
| LFRIIWGCS | inactive |
| DSLFTIYMNSISFR | 5.83 ± 0.093 |
| RVYLFNYICGGLDFFLRPTV | 5.37 ± 0.081 |
| IKSVVLS | 0.043 ± 0.63 |

| Substance | amyloid nucleation score |
| --- | --- |
| CNCVWRCWV | 1.14 ± 0.78 |
| RFEIIYGWSTYVLDAGVSFQ | 1.21 ± 0.13 |
| DLTCWLLFFNLLYSI | 0.492 ± 0.33 |
| TVNSWRNLMSDLSWFSAVIL | -0.657 ± 0.39 |
| SLLCCVLVFSFCFSPFRSSE | 1.52 ± 0.16 |
| VVAAILHKLS | -0.16 ± 0.41 |
| RRGFVAHLFLVLTVVCNLNS | 7.2 ± 0.071 |
| YARIAKRTFLVYSQNEARFE | 0.843 ± 0.98 |
| TICVYSG | 0.008 ± 0.49 |
| VLMMV | 1.28 ± 0.48 |
| VWRSVSRCSCVSSSIGGVTV | -0.868 ± 0.39 |
| VRSKLPPGSFDSFWGWWEKK | -0.343 ± 0.45 |
| VCSQHGGWISGGKGSILARS | -0.417 ± 0.99 |
| CHYVKPVFTICQVPTFIESI | 1.43 ± 0.51 |
| YMFWRGLVFKWVV | 0.667 ± 0.56 |
| WCSNVNFDVRVDNIKSFRWF | 5.864 ± 0.053 |
| RKASYLSAVNMQFRESFLFW | -0.209 ± 0.28 |
| CDRFWMELG | -0.267 ± 0.4 |
| RLKGSPHVLL | -1.69 ± 1.2 |
| KCRKASMSSPILDLCTRMRC | -1.18 ± 1.9 |
| NMRTNNVGVGLPSFMHNSSF | inactive |
| WHSSSLMWHNKLS | inactive |
| NMSESCNMDTLYGYDLRQWV | 0.088 ± 0.33 |
| VEGALGYGCASC | 0.768 ± 0.65 |
| SAHSDPQMRKNSLTYGNDLI | -0.116 ± 0.42 |
| AVLYLSQFGLNRKRGYTA | 0.582 ± 0.56 |

| Substance | amyloid nucleation score |
| --- | --- |
| YFKLIVLVGLNAREWRAAMV | -0.221 ± 0.4 |
| RIASSRVFFAFFRSLYMSGW | 0.995 ± 0.47 |
| SMRSNWPGYCTRNGFTLSLL | -0.684 ± 0.32 |
| PLCSNRIERMLLSVGCGRRR | -0.416 ± 0.44 |
| CRTTHQALRWIHMDYYYSWV | -0.327 ± 0.31 |
| NIRKPNLNTMTDRLDWSVQS | -0.102 ± 0.47 |
| MMSSEVLPINSCIRSWANAL | -0.431 ± 0.29 |
| FSRSTQVSER | 1.38 ± 0.61 |
| WRGCVNFCEKKPGVGVSSV | 0.076 ± 0.55 |
| QFDCPEHKRIHYRGPHPKRK | -0.356 ± 0.33 |
| WMAFWGWVLYYFSFHFTFNV | 0.079 ± 0.48 |
| SYKNVGRV | 0.273 ± 0.86 |
| IYYSFVGLVMCYAFPAEVWS | 1.4 ± 0.51 |
| KKFVNFWVMSLYLNSDYSP | inactive |
| DNGCDEVCWELVFEFVD | 0.562 ± 0.39 |
| KWNCLVSCRLCELYLIPLI | 3.58 ± 0.081 |
| FALVRTLTRSKSSFTTSQIK | 0.524 ± 0.47 |
| KGYSSTYGRPSKHYCC | inactive |
| TIRNMMMYYGSSKVSYRMNS | 0.587 ± 0.22 |
| RVYISMM | -1.41 ± 1.7 |
| QIINKFTSDIVLTD | 0.456 ± 0.38 |
| KSTRWQIRSDALDVSERCFS | 1 ± 0.76 |
| HHSVGSYRINCLV | 3.39 ± 0.089 |
| DGASMSKRPPRVILKLGIFD | 0.054 ± 0.33 |
| RRGGGGSSIFLMHTAWILLE | 1.03 ± 0.34 |
| PMVIKVLVGCRGYSDLNLYW | 4.9 ± 0.079 |

| Substance | amyloid nucleation score |
| --- | --- |
| DNKGYL | -0.977 ± 1 |
| LVTMLLNKYIVNRSHDGVRI | 0.966 ± 0.49 |
| YCGSYHLGSFGIYSTVEIYC | 1.37 ± 0.9 |
| WCGVFESGNRPKSQGKGSKW | 0.159 ± 0.55 |
| GIVFIIQYS | inactive |
| IYTRFFNTV | -0.222 ± 0.36 |
| SLWNDFHMVAVYLVTLSSVD | 0.895 ± 0.79 |
| LHTKVV | 0.431 ± 0.77 |
| LHDQCLAHGQWCNTWGK | -0.022 ± 0.39 |
| ALAVVVLFLCVSTPAYVAFE | 0.923 ± 0.53 |
| KLDMGVLPFANWSVDT | -0.032 ± 0.28 |
| DETWLSLQVNLLLFYSRMDM | -0.153 ± 0.66 |
| SYLMY | -0.533 ± 0.9 |
| CYNNSCDKWGWASM | 1.22 ± 0.53 |
| MDKSELK | 0.128 ± 0.86 |
| PNYDVMSLYRTNYGNYSHSV | 0.471 ± 0.38 |
| GFAFSNVCIVAYYRYFSSRR | 3.26 ± 0.15 |
| FHSSGFVVYMLIVRGSPSMR | 0.218 ± 0.27 |
| CCVNDFPTISPLSPLKRFDR | -0.302 ± 0.54 |
| NSWVSINMCNVFGPHCMWTV | 7.21 ± 0.074 |
| RAVLSTSELGLPTV | 0.27 ± 0.89 |
| WFTGGFRVIMGS | 0.728 ± 0.97 |
| MSIAMDGYFYPSSAAPFFIT | -0.156 ± 0.42 |
| SCYIDYNFYSWQGSWYCFKI | inactive |
